In doi:10.1101/583088:

Biological target: 3-methylaspartate ammonia lyase from Citrobacter amalonaticus (Citrobacter amalonaticus) (UniProt O66145)
Experiment: SEC

3-methylaspartate ammonia lyase from Citrobacter amalonaticus (from UniProt O66145 1-413) (enzyme)
stoichiometry N: 2
